Among the data in PMC10547376 are percent of total TRAP1 in the polysomal fractions values, retold here.

Some results are limits rather than exact numbers.

The test addresses actively translating polysomes (cytosolic ribosomes) (human (endogenous in HeLa, HT29)). As to the kind of experiment: co-sedimentation.

B1: TRAP1 (endogenous) (natural protein)
chain: STQTAEDKEEPLHSIISSTESVQGSTSKHEFQAETKKLLDIVARSLYSEKEVFIRELISNASDALEKLRHKLVSDGQALPEMEIHLQTNAEKGTITIQDTGIGMTQEELVSNLGTIARSGSKAFLDALQNQAEASSKIIGQFGVGFYSAFMVADRVEVYSRSAAPGSLGYQWLSDGSGVFEIAEASGVRTGTKIIIHLKSDCKEFSSEARVRDVVTKYSNFVSFPLYLNGRRMNTLQAIWMMDPKDVREWQHEEFYRYVAQAHDKPRYTLHYKTDAPLNIRSIFYVPDMKPSMFDVSRELGSSVALYSRKVLIQTKATDILPKWLRFIRGVVDSEDIPLNLSRELLQESALIRKLRDVLQQRLIKFFIDQSKKDAEKYAKFFEDYGLFMREGIVTATEQEVKEDIAKLLRYESSALPSGQLTSLSEYASRMRAGTRNIYYLCAPNRHLAEHSPYYEAMKKKDTEVLFCFEQFDELTLLHLREFDKKKLISVETDIVVDHYKEEKFEDRSPAAECLSEKETEELMAWMRNVLGSRVTNVKVTLRLDTHPAMVTVLEMGAARHFLRMQQLAKTQEERAQLLQPTLEINPRHALIKKLNQLRASEPGLAQLLVDQIYENAMIAAGLVDDPRAMVGRLNELLVKALERH
On to B1, for which the percent of total TRAP1 in the polysomal fractions is greater than 0.7%.
